Results: the supplement of paper PMC9112550, “Optimization of the antimicrobial peptide Bac7 by deep mutational scanning” (BMC Biology, 2022)

Tested on: Escherichia coli TOP10
Experiment: shrunken log2 fold change of peptide-encoding DNA abundance (4.5 h post-induction vs induction); higher = less antimicrobial activity (less host growth inhibition)
Conditions: time post-induction: 4.5 h; library: site-saturation at positions 5, 18, 19, 20
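Note: peptides expressed intracellularly from a pBAD plasmid library in pooled LB shake-flask culture, induced with 0.3% L-arabinose, DNA abundance read by NGS, three biological replicates, DESeq2 with apeglm shrinkage.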

Sequence	shrunken log2 fold change
RRIRTRPPRLPRPRPRPHMGPRP	-0.00538
RRIRTRPPRLPRPRPRPHMSPRP	0.0303
RRIRTRPPRLPRPRPRPHMWPRP	-0.302
RRIRTRPPRLPRPRPRPHPQPRP	-0.116
RRIRTRPPRLPRPRPRPHSHPRP	-0.626
RRIRTRPPRLPRPRPRPHSPPRP	-0.278
RRIRTRPPRLPRPRPRPHSSPRP	-0.119
RRIRTRPPRLPRPRPRPHTCPRP	-0.0347
RRIRTRPPRLPRPRPRPHTFPRP	-0.431
RRIRTRPPRLPRPRPRPHTKPRP	-0.0963
RRIRTRPPRLPRPRPRPHTPPRP	0.0178
RRIRTRPPRLPRPRPRPHVFPRP	-0.119
RRIRTRPPRLPRPRPRPHVWPRP	0.272
RRIRTRPPRLPRPRPRPHWCPRP	-0.00994
RRIRTRPPRLPRPRPRPHYDPRP	-0.302
RRIRTRPPRLPRPRPRPHYQPRP	-0.782
RRIRTRPPRLPRPRPRPIAIPRP	-0.0261
RRIRTRPPRLPRPRPRPIAKPRP	-0.3
RRIRTRPPRLPRPRPRPIAPPRP	-0.0608
RRIRTRPPRLPRPRPRPICLPRP	-0.14
RRIRTRPPRLPRPRPRPIDPPRP	-0.201
RRIRTRPPRLPRPRPRPIEQPRP	-0.00141
RRIRTRPPRLPRPRPRPIEVPRP	0.131
RRIRTRPPRLPRPRPRPIFRPRP	0.00202
RRIRTRPPRLPRPRPRPIHHPRP	-0.124

Sequence	shrunken log2 fold change
RRIRTRPPRLPRPRPRPIHIPRP	0.0274
RRIRTRPPRLPRPRPRPIHWPRP	0.0444
RRIRTRPPRLPRPRPRPIIIPRP	-0.219
RRIRTRPPRLPRPRPRPIIMPRP	-0.305
RRIRTRPPRLPRPRPRPILQPRP	-0.44
RRIRTRPPRLPRPRPRPIMKPRP	-0.253
RRIRTRPPRLPRPRPRPINEPRP	-0.405
RRIRTRPPRLPRPRPRPIPDPRP	-0.32
RRIRTRPPRLPRPRPRPIPNPRP	0.0695
RRIRTRPPRLPRPRPRPIQRPRP	0.0582
RRIRTRPPRLPRPRPRPITEPRP	-0.183
RRIRTRPPRLPRPRPRPIWKPRP	0.0742
RRIRTRPPRLPRPRPRPKEDPRP	0.262
RRIRTRPPRLPRPRPRPKEGPRP	-0.0199
RRIRTRPPRLPRPRPRPKESPRP	0.0841
RRIRTRPPRLPRPRPRPKEYPRP	-1.07
RRIRTRPPRLPRPRPRPKFEPRP	0.0721
RRIRTRPPRLPRPRPRPKFRPRP	-0.204
RRIRTRPPRLPRPRPRPKGYPRP	-0.0992
RRIRTRPPRLPRPRPRPKHWPRP	0.441
RRIRTRPPRLPRPRPRPKISPRP	-0.932
RRIRTRPPRLPRPRPRPKLPPRP	0.214
RRIRTRPPRLPRPRPRPKLWPRP	0.401
RRIRTRPPRLPRPRPRPKMGPRP	-0.0141
RRIRTRPPRLPRPRPRPKNFPRP	-0.0884

Sequence	shrunken log2 fold change
RRIRTRPPRLPRPRPRPKNWPRP	0.183
RRIRTRPPRLPRPRPRPKPWPRP	0.363
RRIRTRPPRLPRPRPRPKQTPRP	0.204
RRIRTRPPRLPRPRPRPKRMPRP	-0.157
RRIRTRPPRLPRPRPRPKSHPRP	-0.365
RRIRTRPPRLPRPRPRPKSRPRP	-0.0444
RRIRTRPPRLPRPRPRPKSWPRP	0.245
RRIRTRPPRLPRPRPRPKTPPRP	-0.0565
RRIRTRPPRLPRPRPRPKVAPRP	0.0317
RRIRTRPPRLPRPRPRPKVLPRP	-0.015
RRIRTRPPRLPRPRPRPKYLPRP	-0.0222
RRIRTRPPRLPRPRPRPKYTPRP	-0.508
RRIRTRPPRLPRPRPRPLDCPRP	-0.294
RRIRTRPPRLPRPRPRPLFGPRP	-0.186
RRIRTRPPRLPRPRPRPLGQPRP	-0.137
RRIRTRPPRLPRPRPRPLIIPRP	-0.784
RRIRTRPPRLPRPRPRPLIKPRP	-1.06
RRIRTRPPRLPRPRPRPLKVPRP	-0.221
RRIRTRPPRLPRPRPRPLLGPRP	-0.185
RRIRTRPPRLPRPRPRPLLHPRP	0.0651
RRIRTRPPRLPRPRPRPLLNPRP	-0.157
RRIRTRPPRLPRPRPRPLMSPRP	0.0356
RRIRTRPPRLPRPRPRPLNLPRP	-0.548
RRIRTRPPRLPRPRPRPLPEPRP	0.126
RRIRTRPPRLPRPRPRPLPRPRP	0.484

Sequence	shrunken log2 fold change
RRIRTRPPRLPRPRPRPLQNPRP	0.163
RRIRTRPPRLPRPRPRPLRLPRP	0.219
RRIRTRPPRLPRPRPRPLSLPRP	-0.613
RRIRTRPPRLPRPRPRPLTMPRP	-0.27
RRIRTRPPRLPRPRPRPLWDPRP	-0.0109
RRIRTRPPRLPRPRPRPLYAPRP	-0.274
RRIRTRPPRLPRPRPRPMCKPRP	-0.0839
RRIRTRPPRLPRPRPRPMCTPRP	-0.0211
RRIRTRPPRLPRPRPRPMEIPRP	-0.00196
RRIRTRPPRLPRPRPRPMERPRP	0.0039
RRIRTRPPRLPRPRPRPMFPPRP	0.0617
RRIRTRPPRLPRPRPRPMHIPRP	-0.158
RRIRTRPPRLPRPRPRPMKCPRP	-0.0722
RRIRTRPPRLPRPRPRPMKMPRP	0.0821
RRIRTRPPRLPRPRPRPMKPPRP	-0.0805
RRIRTRPPRLPRPRPRPMKSPRP	-0.203
RRIRTRPPRLPRPRPRPMLHPRP	0.111
RRIRTRPPRLPRPRPRPMLKPRP	-0.106
RRIRTRPPRLPRPRPRPMPCPRP	0.159
RRIRTRPPRLPRPRPRPMRKPRP	0.375
RRIRTRPPRLPRPRPRPMSMPRP	-0.171
RRIRTRPPRLPRPRPRPMVIPRP	-0.0894
RRIRTRPPRLPRPRPRPMVLPRP	-0.0596
RRIRTRPPRLPRPRPRPMVQPRP	0.0197
RRIRTRPPRLPRPRPRPMWWPRP	-0.0168

Sequence	shrunken log2 fold change
RRIRTRPPRLPRPRPRPMYPPRP	0.0537
RRIRTRPPRLPRPRPRPMYSPRP	-0.00295
RRIRTRPPRLPRPRPRPMYWPRP	-0.131
RRIRTRPPRLPRPRPRPNAFPRP	-0.0622
RRIRTRPPRLPRPRPRPNAGPRP	0.0361
RRIRTRPPRLPRPRPRPNEMPRP	-0.235
RRIRTRPPRLPRPRPRPNFQPRP	0.00569
RRIRTRPPRLPRPRPRPNFRPRP	-0.152
RRIRTRPPRLPRPRPRPNGIPRP	0.0301
RRIRTRPPRLPRPRPRPNHAPRP	0.176
RRIRTRPPRLPRPRPRPNHHPRP	-0.687
RRIRTRPPRLPRPRPRPNHNPRP	-0.914
RRIRTRPPRLPRPRPRPNHQPRP	-0.35
RRIRTRPPRLPRPRPRPNKAPRP	-0.0944
RRIRTRPPRLPRPRPRPNLIPRP	-0.408
RRIRTRPPRLPRPRPRPNLSPRP	0.00227
RRIRTRPPRLPRPRPRPNMDPRP	-0.508
RRIRTRPPRLPRPRPRPNMEPRP	0.343
RRIRTRPPRLPRPRPRPNMMPRP	-0.237
RRIRTRPPRLPRPRPRPNMVPRP	-0.0672
RRIRTRPPRLPRPRPRPNNAPRP	-0.303
RRIRTRPPRLPRPRPRPNNTPRP	-0.518
RRIRTRPPRLPRPRPRPNNWPRP	-0.12
RRIRTRPPRLPRPRPRPNPKPRP	0.27
RRIRTRPPRLPRPRPRPNRHPRP	-0.36

Sequence	shrunken log2 fold change
RRIRTRPPRLPRPRPRPNRTPRP	-0.002
RRIRTRPPRLPRPRPRPNRWPRP	-0.0997
RRIRTRPPRLPRPRPRPNTTPRP	-0.164
RRIRTRPPRLPRPRPRPNVDPRP	-0.625
RRIRTRPPRLPRPRPRPNWHPRP	-0.0773
RRIRTRPPRLPRPRPRPNWWPRP	0.188
RRIRTRPPRLPRPRPRPNYMPRP	0.0222
RRIRTRPPRLPRPRPRPPAEPRP	0.378
RRIRTRPPRLPRPRPRPPAKPRP	1.11
RRIRTRPPRLPRPRPRPPDCPRP	0.0461
RRIRTRPPRLPRPRPRPPDQPRP	0.601
RRIRTRPPRLPRPRPRPPEFPRP	-0.231
RRIRTRPPRLPRPRPRPPFQPRP	0.0322
RRIRTRPPRLPRPRPRPPFRPRP	0.693
RRIRTRPPRLPRPRPRPPGKPRP	0.129
RRIRTRPPRLPRPRPRPPGMPRP	0.424
RRIRTRPPRLPRPRPRPPHHPRP	-0.149
RRIRTRPPRLPRPRPRPPISPRP	0.075
RRIRTRPPRLPRPRPRPPKCPRP	-0.339
RRIRTRPPRLPRPRPRPPKFPRP	-0.025
RRIRTRPPRLPRPRPRPPKWPRP	0.181
RRIRTRPPRLPRPRPRPPLQPRP	0.369
RRIRTRPPRLPRPRPRPPMMPRP	-0.121
RRIRTRPPRLPRPRPRPPMNPRP	-0.399
RRIRTRPPRLPRPRPRPPPFPRP	0.452
